The data set concerns the target T1, pcGAS full-length (pcGASFL) (Sus scrofa (porcine), UniProt I3LM39 1-495).
T1 sequence: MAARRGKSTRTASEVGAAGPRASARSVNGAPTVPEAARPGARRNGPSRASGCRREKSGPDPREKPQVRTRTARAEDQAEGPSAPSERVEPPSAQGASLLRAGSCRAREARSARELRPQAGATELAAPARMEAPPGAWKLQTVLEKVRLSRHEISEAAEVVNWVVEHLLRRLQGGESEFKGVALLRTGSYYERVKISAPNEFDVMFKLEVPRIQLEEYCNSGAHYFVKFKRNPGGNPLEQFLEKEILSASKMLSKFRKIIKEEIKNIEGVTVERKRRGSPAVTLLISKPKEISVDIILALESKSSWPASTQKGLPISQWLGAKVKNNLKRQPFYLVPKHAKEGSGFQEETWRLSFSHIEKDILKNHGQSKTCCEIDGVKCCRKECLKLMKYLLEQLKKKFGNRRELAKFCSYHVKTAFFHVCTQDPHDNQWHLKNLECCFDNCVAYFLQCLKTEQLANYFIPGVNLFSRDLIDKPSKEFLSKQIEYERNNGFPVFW
Description: EMSA; pcGAS dose series; EMSA: 50 uM ISD45, pcGAS at DNA:protein 1:1 to 1:32, RT 1 h, 1% agarose in 40 mM Tris-HCl pH 9.2; pull-down: pcGAS + 3C in 50 mM HEPES pH 7.5, 3 mM EDTA, 150 mM NaCl, 0.005% Tween-20, 10 mM DTT at 37 C 2 h, then 4 h with HSV60 streptavidin beads. Particulars: protein: recombinant; tags: N-term His6-SUMO-FLAG, C-term HA (SUMO kept on full-length protein); blunt.

B1: ISD45 (dsDNA)
DNA 1: TACAGATCTACTAGTGATCTATGACTGATCTGTACATGATCTACA
DNA 2: TGTAGATCATGTACAGATCAGTCATAGATCACTAGTAGATCTGTA
For the molecule B1, the binding result is on record as “binds”.

For the origin of these results see article PMC10521975, “Species-specific cleavage of cGAS by picornavirus protease 3C disrupts mitochondria DNA-mediated immune sensing”.
